Our source for the increase of FRET over WT, change of FRET against WT and FRET as percent of WT values is publication doi:10.1101/2022.09.07.507024.

The experiment addresses FMAL-labeled F-actin (rabbit skeletal muscle) (rabbit) (UniProt P68135). The experiment is described as follows: FRET or BRET. For orientation: BRET reads energy transfer from a luciferase to a nearby fluorophore.

“TMR-C0-C2^(P330C, L349R), unphosphorylated (domain or fragment)” showed an increase of FRET over WT at 2.5 uM C0-C2 of 89%.
The substance “TMR-C0-C2^(S85C, L349R), PKA-phosphorylated (domain or fragment)” yielded a change of FRET against WT at 2.5 uM C0-C2 (direction not told) of 4%.
Substance “TMR-C0-C2^(Cys249, L349R), unphosphorylated (domain or fragment)” returned a change of FRET against WT at 2.5 uM C0-C2 (direction not told) of 10%.
“TMR-C0-C2^(P330C, L349R), PKA-phosphorylated (domain or fragment)” came in with an increase of FRET over WT at 2.5 uM C0-C2 of 166%.
Still for that read-out and setting: next, “TMR-C0-C2^(P330C, T59A), unphosphorylated (domain or fragment)”: 21%.
The substance “TMR-C0-C2^(S85C, L349R), unphosphorylated (domain or fragment)” returned a change of FRET against WT at 2.5 uM C0-C2 (direction not told) of 22%.
“TMR-C0-C2^(Cys249, L352P), PKA-phosphorylated (domain or fragment)” showed an increase of FRET over WT at 2.5 uM C0-C2 of 74 to 160%.
In turn, “TMR-C0-C2^(S85C, E334K), PKA-phosphorylated (domain or fragment)” had an FRET as percent of WT at 2.5 uM C0-C2 (% of wild type FRET) of 45.
For “TMR-C0-C2^(P330C, R282W), PKA-phosphorylated (domain or fragment)”, the increase of FRET over WT at 2.5 uM C0-C2 is 105%.
Still for that read-out and setting: next, “TMR-C0-C2^(P330C, L352P), PKA-phosphorylated (domain or fragment)”: 74 to 160%.
As for “TMR-C0-C2^(Cys249, L349R), PKA-phosphorylated (domain or fragment)”, the change of FRET against WT at 2.5 uM C0-C2 (direction not told) worked out at 31%.
